Results published in article PMC11237401.

Experiments:
DivIC = test: BACTH (bacterial adenylate cyclase-based two-hybrid); conditions: T18 fusion: Gp11 or mutant; T25 fusion: DivIC; parent: est. 5500; read off a plot
MurG = MurG (UniProt Q2FYL5); test: as above; conditions: T18 fusion: Gp11 or mutant; T25 fusion: MurG; parent: est. 5300; read off a plot
Sequence of UniProt Q2FYL5 (Q2FYL5 whole entry, the tested form may be a part): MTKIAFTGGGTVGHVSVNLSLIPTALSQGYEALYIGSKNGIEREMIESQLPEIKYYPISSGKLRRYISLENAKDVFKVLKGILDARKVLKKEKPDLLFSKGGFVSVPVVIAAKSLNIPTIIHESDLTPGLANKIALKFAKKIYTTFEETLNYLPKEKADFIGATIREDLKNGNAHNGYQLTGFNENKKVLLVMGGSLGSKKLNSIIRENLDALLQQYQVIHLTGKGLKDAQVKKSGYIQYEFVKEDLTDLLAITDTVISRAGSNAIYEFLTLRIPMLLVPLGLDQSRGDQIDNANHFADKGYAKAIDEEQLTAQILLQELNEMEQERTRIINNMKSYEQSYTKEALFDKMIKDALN

Q: What does the source list for Gp11 A38E?
A: response (DivIC): 1900 Miller Units; response (MurG): 150 Miller Units

Q: For Gp11 G36R, which response (DivIC) is on record?
A: 100 Miller Units

Q: And the response (MurG)?
A: 100 Miller Units

Q: Which response (DivIC) does the source give for Gp11 S33L here?
A: 3200 Miller Units

Q: What about the response (MurG) of the same substance?
A: 1600 Miller Units
